The text below walks through data of US20240390509A1, “ANTIBODY-DRUG CONJUGATE, PREPARATION METHOD THEREFOR, AND PHARMACEUTICAL USE THEREOF” (SHANGHAI HANSOH BIOMEDICAL CO., LTD., priority 2021, published 2024).

Common to all, as to set-up: species or system nude mice (Balb/c Nude)
The subject of test [1] is human gastric cancer NCI-N87 tumor cell transplant mouse model. The experiment in a line: Dose-dependent in vivo anti-tumor effect, NCI-N87 transplant mouse model (Example 11). As to conditions: NCI-N87 xenograft, 1 mg/kg IV Q2W, day 28. How it is done:
In order to further study the inhibitory effect of antibody-drug conjugate on tumors formed in vivo, the Trop-2 positive tumor cell human gastric cancer NCI-N87 tumor cell transplant mouse model was used to evaluate the inhibitory effect of candidate molecule on tumor proliferation in vivo. 5×10^6 NCI-N87 cells were injected subcutaneously into 6-week-old nude mice (Balb/c Nude) weighing about […]. After 8 days, the average tumor volume reached 175 mm^3 and grouping was performed, and the antibody-drug conjugate was started to be injected intravenously every 2 weeks at a dose of 2 mg/kg or 1 mg/kg. The control used human IgGI isotype control antibody at a dose of 2 mg/kg. There were 5 mice in each group of the control group or the administration group. The tumor inhibition rate was calculated by measuring the tumor volume.

Test [2] relates to human head and neck cancer squamous cell carcinoma FaDu tumor cell transplant mouse model. The experiment in a line: In vivo efficacy, FaDu transplant mouse model. The note with it: FaDu xenograft, day 17. The method, then:
In order to further study the inhibitory effect of antibody-drug conjugate on tumors formed in vivo, the Trop-2 positive tumor cell human head and neck cancer squamous cell carcinoma FaDu tumor cell transplant mouse model was used to evaluate the inhibitory effect of candidate molecule on tumor proliferation in vivo. The cell suspension mixed with Matrigel in equal proportions was added, and 5×10^6 FaDu cells per animal were injected subcutaneously into 6-week-old nude mice (Balb/c Nude) weighing about […]. After 8 days, the average tumor volume reached 133 mm^3 and grouping was performed, and the antibody-drug conjugate was started to be injected intravenously at a single dose of 3 mg/kg or 1 mg/kg. The control used human IgGI isotype control antibody at a dose of 3 mg/kg. There were 5 mice in each group of the control group or the administration group. The tumor inhibition rate was calculated by measuring the tumor volume.

Test [3] deals with lung cancer Calu-3 tumor cell transplant mouse model. The test is described as follows: In vivo efficacy, Calu-3 transplant mouse model. As to conditions: Calu-3 xenograft, 10 mg/kg IV single dose, day 21. The method, then:
In order to further study the inhibitory effect of antibody-drug conjugate on tumors formed in vivo, the Trop-2 positive tumor cell lung cancer Calu-3 tumor cell transplant mouse model was used to evaluate the inhibitory effect of candidate molecule on tumor proliferation in vivo. The cell suspension mixed with Matrigel in equal proportions was added, and 2×10^6 Calu-3 cells per animal were injected subcutaneously into 6-week-old nude mice (Balb/c Nude) weighing about […]. After 8 days, the average tumor volume reached 148 mm^3 and grouping was performed, and the antibody-drug conjugate was started to be injected intravenously at a single dose of 10 mg/kg. The control used human IgG1 isotype control antibody at a dose of 10 mg/kg. There were 5 mice in each group of the control group or the administration group. The tumor inhibition rate was calculated by measuring the tumor volume.

B1: DS-1062-compound D (y = 4) (conjugate, chains of the INN, looked up)
VH: QVQLVQSGAEVKKPGASVKVSCKASGYTFTTAGMQWVRQAPGQGLEWMGWINTHSGVPKYAEDFKGRVTISADTSTSTAYLQLSSLKSEDTAVYYCARSGFGSSYWYFDVWGQGTLVTVSS
VL: DIQMTQSPSSLSASVGDRVTITCKASQDVSTAVAWYQQKPGKAPKLLIYSASYRYTGVPSRFSGSGSGTDFTLTISSLQPEDFAVYYCQQHYITPLTFGQGTKLEIK
modifications: compound D drug conjugate
Take B1: the Tumor inhibition rate in test [1] stood at 78.2%.

B2: DS-1062 (conjugate, chains of the INN, looked up)
VH: QVQLVQSGAEVKKPGASVKVSCKASGYTFTTAGMQWVRQAPGQGLEWMGWINTHSGVPKYAEDFKGRVTISADTSTSTAYLQLSSLKSEDTAVYYCARSGFGSSYWYFDVWGQGTLVTVSS
VL: DIQMTQSPSSLSASVGDRVTITCKASQDVSTAVAWYQQKPGKAPKLLIYSASYRYTGVPSRFSGSGSGTDFTLTISSLQPEDFAVYYCQQHYITPLTFGQGTKLEIK
modifications: deruxtecan payload
As for B2, the Tumor inhibition rate in test [2] (1 mg/kg IV single dose) came to 74.8%; in test [2] (3 mg/kg IV single dose), 200%; in test [3] it was 85.61%.
